We go through 3 molecules from publication PMC3101103 (The Journal of Cell Biology, 2011).

Usually Kd stands for the constant that tells how readily two partners part at equilibrium. One may read the kon as the rate constant with which the complex forms. Low readings indicate slower complex formation, high ones faster complex formation. The stoichiometry N is a count of units in the complex or per binding partner. As usually defined, the koff is the first-order rate constant of dissociation.

The target of data set [1] is ACP-TM with the C-terminal YFP fragment at its C terminus (rabbit | not stated). Briefly: split reporter.
Data set [2] concerns the target N-formyl peptide receptor (FPR), nonactivating mutant D71A (UniProt P21462). The data set can be described thus: single-molecule TIRF imaging, 2D-3D Scatchard plot.
Data set [3] has the same target. The data set can be described thus: TIRF imaging, time course of surface-bound fluorescence.
Data set [4] concerns the molecule itself. The data set can be described thus: single-molecule TIRF imaging, spot-intensity histograms against expression level.
Data set [5] deals with the molecule itself. Briefly: single-molecule TIRF imaging, duration of colocalization events.

“ACP-TM with the N-terminal YFP fragment at its C terminus (from UniProt P42212 1-155)” displayed a corrected lifetime of BiFC dimers in data set [1] of 163 ms.

For the molecule “N-formyl-Nle-Leu-Phe-Nle-Tyr-Lys conjugated with Alexa Fluor 594 (peptide)”, in data set [2], the Kd is 2.2 nM. Also, the kon in data set [3] came out at 7.6e+06 M⁻¹ s⁻¹.

B1: N-formyl peptide receptor (FPR), nonactivating mutant D71A (receptor, UniProt P21462 1-350, looked up)
chain: METNSSLPTNISGGTPAVSAGYLFLDIITYLVFAVTFVLGVLGNGLVIWVAGFRMTHTVTTISYLNLAVAAFCFTSTLPFFMVRKAMGGHWPFGWFLCKFVFTIVDINLFGSVFLIALIALDRCVCVLHPVWTQNHRTVSLAKKVIIGPWVMALLLTLPVIIRVTTVPGKTGTVACTFNFSPWTNDPKERINVAVAMLTVRGIIRFIIGFSAPMSIVAVSYGLIATKIHKQGLIKSSRPLRVLSFVAAAFFLCWSPYQVVALIATVRIRELLQGMYKEIGIAVDVTSALAFFNSCLNPMLYVFMGQDFRERLIHALPASLERALTEDSTQTSDTATNSTLPSAEVELQAK
As to B1, the “stoichiometry N” value in data set [4] stood at 2. Moreover, in data set [5], the koff amounted to 11 s⁻¹.
